Changes are numbered by the printed parent chain.
Legend:
Assay in all cases: EMSA
Details in all cases: EMSA: 20 pM dsRNA, 50 mM KCl, 10 mM Tris-HCl pH 8.0, 10% glycerol, 1 mM MgCl2, 0.5 mM DTT, on ice 30 min; native 6% gel, 0.5x TBE, 4 C
[1] = molecular target: T1, ADR-1 dsRBD2 mutant (ds2) K584E;K585A;K588A (Caenorhabditis elegans) (UniProt Q9U3D6)
T1 sequence: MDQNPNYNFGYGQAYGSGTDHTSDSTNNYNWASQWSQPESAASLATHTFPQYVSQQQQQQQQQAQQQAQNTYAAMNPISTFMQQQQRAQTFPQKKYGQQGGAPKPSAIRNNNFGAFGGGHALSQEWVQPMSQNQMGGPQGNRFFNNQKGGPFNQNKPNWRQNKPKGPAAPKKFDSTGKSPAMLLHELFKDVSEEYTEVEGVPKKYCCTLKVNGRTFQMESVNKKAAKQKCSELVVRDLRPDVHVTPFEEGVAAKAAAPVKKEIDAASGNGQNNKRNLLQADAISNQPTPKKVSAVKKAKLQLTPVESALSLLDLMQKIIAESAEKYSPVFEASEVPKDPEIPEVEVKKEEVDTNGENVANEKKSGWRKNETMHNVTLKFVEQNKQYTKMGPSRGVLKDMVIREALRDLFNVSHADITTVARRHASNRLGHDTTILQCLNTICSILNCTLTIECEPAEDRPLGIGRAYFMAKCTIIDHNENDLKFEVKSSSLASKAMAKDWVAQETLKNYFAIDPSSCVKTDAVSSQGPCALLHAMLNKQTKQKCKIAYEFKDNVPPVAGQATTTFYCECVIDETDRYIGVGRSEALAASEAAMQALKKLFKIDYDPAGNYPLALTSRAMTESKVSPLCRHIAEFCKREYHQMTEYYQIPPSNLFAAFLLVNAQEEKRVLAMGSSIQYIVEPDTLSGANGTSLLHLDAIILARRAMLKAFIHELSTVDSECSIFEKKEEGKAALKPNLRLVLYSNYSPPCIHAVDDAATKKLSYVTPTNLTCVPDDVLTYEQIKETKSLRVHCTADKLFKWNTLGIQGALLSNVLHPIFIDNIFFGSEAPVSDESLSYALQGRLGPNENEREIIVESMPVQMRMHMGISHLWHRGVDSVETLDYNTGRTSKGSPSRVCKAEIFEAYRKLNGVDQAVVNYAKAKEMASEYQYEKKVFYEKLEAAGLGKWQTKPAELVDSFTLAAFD

[2] = molecular target: ADR-1 WT;ADR-2 WT (Caenorhabditis elegans;Caenorhabditis elegans) (UniProt Q9U3D6+Q22618)
Sequence of ADR-1 WT;ADR-2 WT (Caenorhabditis elegans;Caenorhabditis elegans) (Q22618 whole entry, one chain of several): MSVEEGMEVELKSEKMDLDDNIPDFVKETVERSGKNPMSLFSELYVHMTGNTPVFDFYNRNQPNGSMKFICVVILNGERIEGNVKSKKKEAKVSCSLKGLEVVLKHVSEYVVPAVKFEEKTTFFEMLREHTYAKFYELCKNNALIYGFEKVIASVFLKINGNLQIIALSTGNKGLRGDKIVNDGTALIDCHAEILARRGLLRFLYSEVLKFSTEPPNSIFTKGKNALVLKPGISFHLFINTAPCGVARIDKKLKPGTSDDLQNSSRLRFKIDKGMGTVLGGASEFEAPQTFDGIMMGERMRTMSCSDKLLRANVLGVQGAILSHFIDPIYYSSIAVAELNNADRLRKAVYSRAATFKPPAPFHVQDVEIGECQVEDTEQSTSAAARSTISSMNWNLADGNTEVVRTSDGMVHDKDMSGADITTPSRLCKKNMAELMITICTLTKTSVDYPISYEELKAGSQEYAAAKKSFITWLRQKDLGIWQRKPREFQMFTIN

[3] = molecular target: T2, ADR-1 dsRBD1 mutant (ds1) K223E;K224A;K227A (Caenorhabditis elegans) (UniProt Q9U3D6)
T2 sequence: T1 sequence with K223E, K224A, K227A, E584K, A585K, A588K

“UUAUUAGGUCGGCAAAUAAUUAUUGACGUGUUUUGCCAAUUAACGAUUUUUUGUAAAUUUUAUAUGUGUCUCUUACAGUAAACCGAGAGUGUAUAAAAGCAUAUGAAUAUCAGUUGCUUUGGUCAUCUGAGUAGUAAUACGAUUCGAAAAAAUCGAAAAGUUUUUUUUCCAAUUUUUUGAGUUAGCCGUGAGAGUUG / CAACUCUUCACAGCUAACUCAAAAAAUCGCGAAAAGCAUUUUUCAAAAAAUUUUUGAUUUUUUAGAUUCUUAAUACUACGCAGGUAGCCAAAGUAGCUGAUAUUUUUAUGUUUUCAUACAUUCACAUUUUACUAUAAGACACACAUACAAAAUUUACAAAAAUUGUUAAUUGACAAAAUACGUCAAUAAUUAUUUGUCUACCUAAUAA [lam-2 3'UTR 200 bp dsRNA]” gave a Kd [1] of 0.95 nM, a Kd [2] of 1.5 nM and a Kd [3] of 1.47 nM.

Reference: PMC6182170
